From article PMC12623744 (Scientific Reports, 2025)
Positions of bridges follow the written chain, without caps; N, C: chain ends. Non-standard residues stand in square brackets, D forms with d. Residues, ends and D or L forms follow the SMILES beside them. Nle = CCCC[C@H](N)C(=O)O

T1: HVEM-His protein (UniProt Q92956 39-202, labelled with RED-tris-NTA 2nd Generation dye on the His tag (spectral shift only))
T1 construct: Herpes virus entry mediator (HVEM); No catalogue number printed; also called herpes virus entry mediator; source: bought: ACROBiosystems
T1 sequence (looked up): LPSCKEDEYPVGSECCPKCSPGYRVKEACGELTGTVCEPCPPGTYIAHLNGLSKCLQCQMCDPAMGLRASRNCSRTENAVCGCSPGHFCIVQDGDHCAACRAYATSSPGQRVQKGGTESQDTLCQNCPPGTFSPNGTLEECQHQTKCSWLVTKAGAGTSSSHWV


Columns and labels:
[1] = tested on: HVEM/LIGHT complex; experiment: Competitive ELISA, inhibition of HVEM/LIGHT complex formation; assay type: biochemical, human; conditions: across all tested concentrations (50, 12.5, 3.125 µM)
Experimental: To assess the inhibitory properties of the peptides the ELISA was conducted. Based on the obtained results, it can be concluded that the inhibitory properties of the peptides are strongly correlated with their affinity to HVEM as determined by theoretical methods, as well as with those measured by SpS.
ELISA was conducted using transparent polystyrene 96-well plates (Brand, Wertheim, Germany). Wells were coated with HVEM-His protein at concentration 6 µg/mL dissolved in PBS-T (100 µL per well) and incubated overnight at 4 °C. Unbound sites on the wells by HVEM were blocked with 5% bovine serum albumin (BSA) in PBS-T (200 µL per well). Peptides at three concentrations 50 µM, 12.5 µM, and 3.125 µM dissolved in PBS-T were added and incubated (200 µL per well). […] In the next step horseradish peroxidase (HRP)-conjugated goat antibody (Bio-Rad, Hercules, USA) at dilution 1:3000 in PBS-T (100µL per well) was applied. After each step, wells were washed five times with 200 µL of PBS-T. Incubations were carried out at 37 °C for 2 h, except for the antibody, which was incubated for 1 h. Finally, 200 µL of TMB substrate (Thermo Fisher Scientific,Waltham, MA, USA) was added, and after 15 min of incubation in the dark, absorbance was measured at 492 nm and 650 nm using an Infinite M200 Pro reader (Tecan, Switzerland). The negative control consisted of PBS-T buffer without peptides, while the positive control was mouse anti-human HVEM antibodies (1 µg/well, Bio-Rad, Hercules, CA, USA; #MCA6072GA). Each experiment was performed in three biological replicates, each consisting of three technical replicates and data were analyzed using one-way ANOVA with Dunnett’s post-hoc test in GraphPad Prism (San Diego, USA).

[2] = target: T1, HVEM-His protein; experiment: spectral shift (SpS); Monolith X; HVEM-His labelled with His-Tag Labeling Kit RED-tris-NTA 2nd Generation, final 50 nM; peptides 2 µM to 6.1 pM; PBS-T (0.05% Tween-20, 0.3 M NaCl, pH 7.4); fluorescence ratio 670/650 nm; 25 °C; apparent Kd (peptides aggregated at higher concentrations); conditions: both partners purified

Row | Molecule | Kd [2] | inhibition of HVEM/LIGHT complex formation [1]
1 | CC[C@H](C)[C@H](NC(=O)[C@@H](NC(C)=O)[C@@H](C)O)C(=O)N[C@H]1CSSC[C@@H](C(=O)N[C@@H](CCC(N)=O)C(=O)N[C@@H](CO)C(N)=O)NC(=O)[C@H](CO)NC(=O)[C@H](C(C)C)NC(=O)[C@H](CC(C)C)NC(=O)[C@H](CC(C)C)NC(=O)[C@H](CCC(=O)O)NC(=O)[C@H](CC(C)C)NC(=O)[C@H](CCC(=O)O)NC(=O)[C@H](CCC(=O)O)NC(=O)[C@@H]2CCCN2C(=O)[C@H](Cc2ccc(O)cc2)NC(=O)[C@H](CCCNC(=N)N)NC(=O)[C@@H]2CCCN2C(=O)[C@H]([C@@H](C)O)NC(=O)[C@H](CCCNC(=N)N)NC(=O)[C@H](CCCCN)NC(=O)[C@H](Cc2ccc(O)cc2)NC(=O)[C@H](CC(C)C)NC(=O)CNC(=O)[C@H](Cc2c[nH]cn2)NC1=O [light4] (Ac-TICHGLYKRTPRYPEELELLVSCQS-NH2; disulfide 3-23) |  | below 10%
2 | Ac-TICHGLYKRTPRYPEELELLVSCQS-NH2 (disulfide 3-23; SMILES CC[C@H](C)[C@H](NC(=O)[C@@H](NC(C)=O)[C@@H](C)O)C(=O)N[C@H]1CSSC[C@@H](C(=O)N[C@@H](CCC(N)=O)C(=O)N[C@@H](CO)C(N)=O)NC(=O)[C@H](CO)NC(=O)[C@H](C(C)C)NC(=O)[C@H](CC(C)C)NC(=O)[C@H](CC(C)C)NC(=O)[C@H](CCC(=O)O)NC(=O)[C@H](CC(C)C)NC(=O)[C@H](CCC(=O)O)NC(=O)[C@H](CCC(=O)O)NC(=O)[C@@H]2CCCN2C(=O)[C@H](Cc2ccc(O)cc2)NC(=O)[C@H](CCCNC(=N)N)NC(=O)[C@@H]2CCCN2C(=O)[C@H]([C@@H](C)O)NC(=O)[C@H](CCCNC(=N)N)NC(=O)[C@H](CCCCN)NC(=O)[C@H](Cc2ccc(O)cc2)NC(=O)[C@H](CC(C)C)NC(=O)CNC(=O)[C@H](Cc2c[nH]cn2)NC1=O, Residues 161-185 of LIGHT with two residues substituted by cysteines for a disulfide bond; also called peptide 4; source: synthetic peptide (SPPS, RP-HPLC; disulfide bond formed by air oxidation)) [light4] | 1720 nM | 
3 | Ac-EAGEEVVCRVLDERLVRLRDGTRSYCGAF[Nle]V-NH2 (disulfide 8-26; SMILES CCCC[C@H](NC(=O)[C@H](Cc1ccccc1)NC(=O)[C@H](C)NC(=O)CNC(=O)[C@@H]1CSSC[C@H](NC(=O)[C@@H](NC(=O)[C@@H](NC(=O)[C@H](CCC(=O)O)NC(=O)[C@H](CCC(=O)O)NC(=O)CNC(=O)[C@H](C)NC(=O)[C@H](CCC(=O)O)NC(C)=O)C(C)C)C(C)C)C(=O)N[C@@H](CCCNC(=N)N)C(=O)N[C@@H](C(C)C)C(=O)N[C@@H](CC(C)C)C(=O)N[C@@H](CC(=O)O)C(=O)N[C@@H](CCC(=O)O)C(=O)N[C@@H](CCCNC(=N)N)C(=O)N[C@@H](CC(C)C)C(=O)N[C@@H](C(C)C)C(=O)N[C@@H](CCCNC(=N)N)C(=O)N[C@@H](CC(C)C)C(=O)N[C@@H](CCCNC(=N)N)C(=O)N[C@@H](CC(=O)O)C(=O)NCC(=O)N[C@@H]([C@@H](C)O)C(=O)N[C@@H](CCCNC(=N)N)C(=O)N[C@@H](CO)C(=O)N[C@@H](Cc2ccc(O)cc2)C(=O)N1)C(=O)N[C@H](C(N)=O)C(C)C, Fragment 210-240 of LIGHT with two residues substituted by cysteines for a disulfide bond; the synthesized peptide has norleucine there; also called peptide 1; source: synthetic peptide (SPPS, RP-HPLC; disulfide bond formed by air oxidation)) [light1] | 1680 nM | 
4 | Ac-TCTHGLYKRTPRYPEELELLVSQCS-NH2 (disulfide 2-24; SMILES CC(=O)N[C@H](C(=O)N[C@H]1CSSC[C@@H](C(=O)N[C@@H](CO)C(N)=O)NC(=O)[C@H](CCC(N)=O)NC(=O)[C@H](CO)NC(=O)[C@H](C(C)C)NC(=O)[C@H](CC(C)C)NC(=O)[C@H](CC(C)C)NC(=O)[C@H](CCC(=O)O)NC(=O)[C@H](CC(C)C)NC(=O)[C@H](CCC(=O)O)NC(=O)[C@H](CCC(=O)O)NC(=O)[C@@H]2CCCN2C(=O)[C@H](Cc2ccc(O)cc2)NC(=O)[C@H](CCCNC(=N)N)NC(=O)[C@@H]2CCCN2C(=O)[C@H]([C@@H](C)O)NC(=O)[C@H](CCCNC(=N)N)NC(=O)[C@H](CCCCN)NC(=O)[C@H](Cc2ccc(O)cc2)NC(=O)[C@H](CC(C)C)NC(=O)CNC(=O)[C@H](Cc2c[nH]cn2)NC(=O)[C@H]([C@@H](C)O)NC1=O)[C@@H](C)O, Residues 161-185 of LIGHT with two residues substituted by cysteines for a disulfide bond; also called peptide 3; source: synthetic peptide (SPPS, RP-HPLC; disulfide bond formed by air oxidation)) [light3] | 580 nM | 

More lines, main results first:

Row | Kd [2] | Molecule | inhibition of HVEM/LIGHT complex formation [1]
5 | 1380 nM | Ac-ECGEEVVVRVLDERLVRLRDGTRSYFGAFCV-NH2 (disulfide 2-30; SMILES CC(=O)N[C@@H](CCC(=O)O)C(=O)N[C@H]1CSSC[C@@H](C(=O)N[C@H](C(N)=O)C(C)C)NC(=O)[C@H](Cc2ccccc2)NC(=O)[C@H](C)NC(=O)CNC(=O)[C@H](Cc2ccccc2)NC(=O)[C@H](Cc2ccc(O)cc2)NC(=O)[C@H](CO)NC(=O)[C@H](CCCNC(=N)N)NC(=O)[C@H]([C@@H](C)O)NC(=O)CNC(=O)[C@H](CC(=O)O)NC(=O)[C@H](CCCNC(=N)N)NC(=O)[C@H](CC(C)C)NC(=O)[C@H](CCCNC(=N)N)NC(=O)[C@H](C(C)C)NC(=O)[C@H](CC(C)C)NC(=O)[C@H](CCCNC(=N)N)NC(=O)[C@H](CCC(=O)O)NC(=O)[C@H](CC(=O)O)NC(=O)[C@H](CC(C)C)NC(=O)[C@H](C(C)C)NC(=O)[C@H](CCCNC(=N)N)NC(=O)[C@H](C(C)C)NC(=O)[C@H](C(C)C)NC(=O)[C@H](C(C)C)NC(=O)[C@H](CCC(=O)O)NC(=O)[C@H](CCC(=O)O)NC(=O)CNC1=O, Fragment 210-240 of LIGHT with two residues substituted by cysteines for a disulfide bond; also called peptide 2; source: synthetic peptide (SPPS, RP-HPLC; disulfide bond formed by air oxidation)) [light2] | 
6 | 710 nM | Ac-TCTHGLYKRTPRYPEELLLLVSQCS-NH2 (disulfide 2-24; SMILES CC(=O)N[C@H](C(=O)N[C@H]1CSSC[C@@H](C(=O)N[C@@H](CO)C(N)=O)NC(=O)[C@H](CCC(N)=O)NC(=O)[C@H](CO)NC(=O)[C@H](C(C)C)NC(=O)[C@H](CC(C)C)NC(=O)[C@H](CC(C)C)NC(=O)[C@H](CC(C)C)NC(=O)[C@H](CC(C)C)NC(=O)[C@H](CCC(=O)O)NC(=O)[C@H](CCC(=O)O)NC(=O)[C@@H]2CCCN2C(=O)[C@H](Cc2ccc(O)cc2)NC(=O)[C@H](CCCNC(=N)N)NC(=O)[C@@H]2CCCN2C(=O)[C@H]([C@@H](C)O)NC(=O)[C@H](CCCNC(=N)N)NC(=O)[C@H](CCCCN)NC(=O)[C@H](Cc2ccc(O)cc2)NC(=O)[C@H](CC(C)C)NC(=O)CNC(=O)[C@H](Cc2c[nH]cn2)NC(=O)[C@H]([C@@H](C)O)NC1=O)[C@@H](C)O, Analogue of light3 (residues 161-185 of LIGHT with two cysteines for a disulfide bond) in which glutamic acid 178 was replaced by leucine; source: synthetic peptide (SPPS, RP-HPLC; disulfide bond formed by air oxidation)) [light3_E178L] | 
